Experimental data reported in paper PMC7895427, “A stapled peptide mimetic of the CtIP tetramerization motif interferes with double-strand break repair and replication fork protection” (Science Advances, 2021).
Residue numbers refer to the chain shown, from its start. Names and notes keep the numbering of the source. Positions of bridges follow the written chain, without caps; N, C: chain ends. Non-standard residues stand in square brackets, D forms with d. *: point of attachment. FITC = O=C1OC2(c3ccc(O)cc3Oc3cc(O)ccc32)c2ccc(NC(=S)*)cc21; R8 = C=CCCCCCC[C@@](C)(N)C(=O)O; S5 = C=CCCC[C@](C)(N)C(=O)O

B1: CtIP-NTD^(18–145, L27E) (domain or fragment, human, UniProt Q99708 18-145, looked up)
chain: SDFKDLWTKEKECHDREVQGLQVKVTKLKQERILDAQRLEEFFTKNQQLREQQKVLHETIKVLEDRLRAGLCDRCAVTEEHMRKKQQEFENIRQQNLKLITELMNERNTLQEENKKLSEQLQQKIEND
notes: not shown: His6, N-terminal, cleaved; MBP, N-terminal, cleaved
B2: CtIP-NTD^18–145 (domain or fragment, human, UniProt Q99708 18-145, looked up)
chain: B1 chain with E10L
notes: as for B1
B3: CtIP-NTD^32–145 (domain or fragment, human, UniProt Q99708 32-145, looked up)
chain: DREVQGLQVKVTKLKQERILDAQRLEEFFTKNQQLREQQKVLHETIKVLEDRLRAGLCDRCAVTEEHMRKKQQEFENIRQQNLKLITELMNERNTLQEENKKLSEQLQQKIEND
notes: also called N-terminal coiled-coil domain; not shown: His6, N-terminal, cleaved; MBP, N-terminal, cleaved
B4: full-length recombinant CtIP wild type (natural protein, human, UniProt Q99708 1-897, looked up)
chain: MNISGSSCGSPNSADTSSDFKDLWTKLKECHDREVQGLQVKVTKLKQERILDAQRLEEFFTKNQQLREQQKVLHETIKVLEDRLRAGLCDRCAVTEEHMRKKQQEFENIRQQNLKLITELMNERNTLQEENKKLSEQLQQKIENDQQHQAAELECEEDVIPDSPITAFSFSGVNRLRRKENPHVRYIEQTHTKLEHSVCANEMRKVSKSSTHPQHNPNENEILVADTYDQSQSPMAKAHGTSSYTPDKSSFNLATVVAETLGLGVQEESETQGPMSPLGDELYHCLEGNHKKQPFEESTRNTEDSLRFSDSTSKTPPQEELPTRVSSPVFGATSSIKSGLDLNTSLSPSLLQPGKKKHLKTLPFSNTCISRLEKTRSKSEDSALFTHHSLGSEVNKIIIQSSNKQILINKNISESLGEQNRTEYGKDSNTDKHLEPLKSLGGRTSKRKKTEEESEHEVSCPQASFDKENAFPFPMDNQFSMNGDCVMDKPLDLSDRFSAIQRQEKSQGSETSKNKFRQVTLYEALKTIPKGFSSSRKASDGNCTLPKDSPGEPCSQECIILQPLNKCSPDNKPSLQIKEENAVFKIPLRPRESLETENVLDDIKSAGSHEPIKIQTRSDHGGCELASVLQLNPCRTGKIKSLQNNQDVSFENIQWSIDPGADLSQYKMDVTVIDTKDGSQSKLGGETVDMDCTLVSETVLLKMKKQEQKGEKSSNEERKMNDSLEDMFDRTTHEEYESCLADSFSQAADEEEELSTATKKLHTHGDKQDKVKQKAFVEPYFKGDERETSLQNFPHIEVVRKKEERRKLLGHTCKECEIYYADMPAEEREKKLASCSRHRFRYIPPNTPENFWEVGFPSTQTCMERGYIKEDLDPCPRPKRRQPYNAIFSPKGKEQKT
notes: human CtIP, full length (amino acids 1 to 897); also called CtIP-wt
B5: full-length recombinant CtIP-L27E (natural protein, human, UniProt Q99708 1-897, looked up)
chain: B4 chain with L27E
notes: human CtIP, full length (amino acids 1 to 897), with L27E; L27E was introduced by site-directed mutagenesis of the 3xFLAG-CtIP-wt expression vector

Tests used:
[1] = target: the molecule itself; experiment: cross-linking; 1 or 2 μg recombinant protein with or without peptide in PBS, 30 min at RT; 100 μM disuccinimidyl suberate, 30 min at RT; SDS-PAGE and staining
[2] = target: B2; experiment: fluorescence polarisation; FITC-labeled peptide (1 mg/ml stock diluted 1:10,000) mixed with serially diluted CtIP-NTD; 20 mM tris (pH 8.0), 150 mM NaCl; 10 min at RT; nonlinear regression with Hill slope; conditions: both partners purified
[3] = target: the molecule itself; experiment: cell-based or functional assay
[4] = target: the molecule itself; experiment: SEC-MALS; full-length CtIP 10 μM with 0, 20 or 250 μM peptide; 1 hour on ice, then 30 min at RT; Superose 6 10/300 in 20 mM tris (pH 8.0), 200 mM NaCl, 0.5 mM TCEP

B1
stoichiometry N [1]: 2

B2
stoichiometry N [1]: 4

{FITC}-S[R8]FKDLWT[S5]LK-NH2 (staple 2-9) [FITC-labeled SP^18–28 (hydrocarbon-stapled peptide of CtIP residues 18 to 28)]
Kd [2]: 209 nM

{FITC}-S[R8]FKDLWT[S5]LKECH-NH2 (staple 2-9) [FITC-labeled SP^18–31 (hydrocarbon-stapled peptide spanning the entire CtIP tetramerization motif)]
fold higher Kd than that of SP^18–28 on the same target [2]: ~100 fold

B3
stoichiometry N [1]: 2

B4
HR frequency (percentage of GFP-positive U2OS EGFP-HR reporter cells after I-SceI) with 10 μM SP^18–28 for 24 hours [3]: ~3 fold decrease
stoichiometry N [4]: 4

B5
stoichiometry N [4]: 2
